The results in this text go back to PMC9258132, “Multi-omics profiling identifies a deregulated FUS-MAP1B axis in ALS/FTD–associated UBQLN2 mutants”.

The data set deals with MBP-FUS-His6 WT (UniProt P35637 1-526). The experiment in a line: EMSA; 5 mM MgCl2, 0.1 mg/ml yeast tRNA; 5 nM RNA, 0-10 uM protein; 20 mM NaPO4 pH 8, 150 mM NaCl, 5% glycerol, 1 mM DTT, 5 mM MgCl2, 0.5 mg/ml BSA, 0.1 mg/ml yeast tRNA, 1 U/ul RNase inhibitor, 20 min RT; 6% native PAGE in 0.5x TBE. The following applies: protein: recombinant; tags: N-terminal MBP, C-terminal His6; hairpin with 3' single-stranded tail. Background: A gel shift assay detects complexes by their altered migration in electrophoresis.
MBP-FUS-His6 WT, sequence (P35637 whole entry): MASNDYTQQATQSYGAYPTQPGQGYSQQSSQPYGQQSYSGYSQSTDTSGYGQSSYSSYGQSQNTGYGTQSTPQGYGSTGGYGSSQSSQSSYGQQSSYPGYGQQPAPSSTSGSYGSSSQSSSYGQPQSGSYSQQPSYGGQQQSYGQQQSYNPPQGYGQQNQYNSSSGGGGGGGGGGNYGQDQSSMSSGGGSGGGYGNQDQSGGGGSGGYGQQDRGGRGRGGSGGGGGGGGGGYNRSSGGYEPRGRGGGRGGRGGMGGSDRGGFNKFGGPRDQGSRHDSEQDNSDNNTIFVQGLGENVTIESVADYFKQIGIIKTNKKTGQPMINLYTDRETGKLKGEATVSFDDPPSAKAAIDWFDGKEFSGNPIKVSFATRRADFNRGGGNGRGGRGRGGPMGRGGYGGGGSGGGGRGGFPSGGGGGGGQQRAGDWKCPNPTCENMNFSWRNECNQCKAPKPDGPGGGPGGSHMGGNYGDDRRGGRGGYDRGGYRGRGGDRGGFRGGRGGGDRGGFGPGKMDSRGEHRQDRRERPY

On to GGAUCUUUAACUACUCAAGAUACUGAACAUGACAUGGUA (structured_RNA) [SON pre-mRNA stem loop with downstream GGU motif], for which the binding result is “binds”.
